The term koff denotes the rate constant with which the complex falls apart. Read a low koff as slow dissociation. The term kon denotes a measure of how fast the partners come together. Low values mean slower complex formation, high ones faster complex formation.

This test concerns the target T1, HH-ST2L (human ST2L Domains I and II), wild type (human, UniProt Q01638 19-205).
T1 construct: also called ST2L-D1D2
T1 sequence: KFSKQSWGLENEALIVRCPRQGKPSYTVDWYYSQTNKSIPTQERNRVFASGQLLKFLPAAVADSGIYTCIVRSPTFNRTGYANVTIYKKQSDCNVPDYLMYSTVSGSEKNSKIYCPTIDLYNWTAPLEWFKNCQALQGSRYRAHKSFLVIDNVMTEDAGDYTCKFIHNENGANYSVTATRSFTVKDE
The test is described as follows: SPR, ProteOn XPR36, 25 C; mAb captured on anti-Fc surface, ST2L-D1D2 (HH-ST2L) protein injected; 1:1 model. As to the method:
Binding studies were performed using the ProteOn XPR36 Protein Interaction Array system (Bio-Rad) (Bravman T, et al. Anal Biochem 358:281-288, 2006). […] Individual anti-ST2L mAb was then captured by flowing (1 μg/mL) antibody solution prepared in PBS containing 0.5% Nonidet P-40 and 0.5% Na-deoxycholate). The signal in the surfaces reached ˜250 resonance units (RU, 1 RU=1 pg protein/mm²) in the anti-Fc-coated surfaces, confirming that these antibodies specifically capture anti-ST2L mAbs. After 90° rotation of the fluid system, wild type of ST2L-D1D2 or variant proteins (0.5 mg/mL in PBS containing 0.5% Nonidet P-40 and 0.5% Na-deoxycholate) was injected in the parallel flow channels. All of these assays were performed at 25° C. The ST2L-D1D2-dependent signals on the surfaces were obtained by double referencing, subtracting the response observed on surfaces immobilizing the antibodies alone, and the signal observed injecting the vehicle alone (which allows correction for binding-independent responses). The resulting sensorgrams were fitted by the simplest 1:1 interaction model (ProteOn analysis software), to obtain the corresponding association and dissociation rate constants (kₐ and kd).
In general terms: Surface plasmon resonance follows binding to a sensor surface in real time, without labels.

B1: STLM208 (antibody, V domains shown)
VH: EVQLLESGGGLVQPGGSLRLSCAASGFTFSIYDMIWVRQAPGKGLEWVSSIRGEGGGTYYADSVKGRFTISRDNSKNTLYLQMNSLRAEDTAVYYCARDPWSTEGSFFVLDYWGQGTLVTVSS
VL: EIVLTQSPATLSLSPGERATLSCRASQSVDDDLAWYQQKPGQAPRLLIYDASNRATGIPARFSGSGSGTDFTLTISSLEPEDFAVYYCQQYITAPLTFGQGTKVEIK
notes: frameworks VH3-23 / Vk-L6
B1: the koff was 0.000122 s⁻¹ and the kon was 1.14e+07 M⁻¹ s⁻¹.

Values taken from patent publication US20170066831A1 (Janssen / Centocor, published 2017).
